The supplement of paper PMC7877785
± gives the uncertainty stated by the source.

Assay: self-splicing fitness, log relative to wild type (ln ratio); higher = more splicing; Tetrahymena group I intron in knt gene, E. coli kanamycin selection, DiMSum; sequences stand for … in CUCUCU…GGAGGGAAAAGUUAUCAGGCAUGCACCUGGUAGCUAGUCUUUAAACCAAUAGAUUGCAUCGGUUUAAAAGGCAAGACCGUCAAAUUGCGGGAAAGGGGUCAACAGCCGUUCAGUACCAAGUCUCAGGGGAAACUUUGAGAUGGCCUUGCAAAGGGUAUGGUAAUAAGCUGACGGACAUGGUCCUAACCACGCAGCCAAGUCCUAAGUCAACAGAUCUUCUGUUGAUAUGGAUGCAGUUCACAGACUAAAUGUCGGUCGGGGAAGAUGUAUUCUUCUCAUAAGAUAUAGUCGGACCUCUCCUUAAUGGGAGCUAGCGGAUGAAGUGAUGCAACACUGGAGCCGCUGGGAACUAAUUUGUAUGCGAAAGUAUAUUGAUUAGUUUUGGAGUACUCGUGGUCG
In short: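 Fitness was computed with DiMSum as the error-weighted combination of replicate fold changes, kanamycin versus none, each normalised to wild type. The library randomised all eight intron nucleotides of the P1ex region, with the intron placed in the knt kanamycin-resistance gene on pET-22b(+) in E. coli BL21(DE3). Six replicate transformations were grown overnight at 37°C or 30°C on LB agar with or without 25 μg/mL kanamycin, plus 100 μg/mL carbenicillin, 50 μM IPTG and 0.2% rhamnose. Pooled colonies were amplicon-sequenced on an Illumina HiSeq 2500.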

Row | Sequence | self-splicing fitness (ln) (30 °C) | self-splicing fitness (ln) (37 °C)
1 | GCCUAGCAAUAUUACGUAUC | -1.26 ± 0.076 | -0.501 ± 0.094
2 | GCCUAGCAAUAUUACGUCCG | -3 ± 0.42 | -2.03 ± 0.26
3 | GCCUAGCAAUAUUACGUCUU | -1.54 ± 0.098 | -1.68 ± 0.11
4 | GCCUAGCAAUAUUACGUGAC | -1.12 ± 0.17 | 0.101 ± 0.17
5 | GCCUAGCAAUAUUACGUUAC | -2.72 ± 0.2 | -1.49 ± 0.18
6 | GCCUAGCAAUAUUACGUUAU | -1.52 ± 0.12 | -0.39 ± 0.14
7 | GCGAAGCAAUAUUACGAAAC | -1.86 ± 0.35 | -0.819 ± 0.44
8 | GCGAAGCAAUAUUACGAAGG | -0.597 ± 0.23 | -0.295 ± 0.3
9 | GCGAAGCAAUAUUACGAAUG | -1.95 ± 0.15 | -0.756 ± 0.17
10 | GCGAAGCAAUAUUACGAUGG | -2.12 ± 0.13 | -0.641 ± 0.14
11 | GCGAAGCAAUAUUACGAUUC | -1.46 ± 0.097 | -0.598 ± 0.13
12 | GCGAAGCAAUAUUACGCCCG | -2.36 ± 0.31 | -1.68 ± 0.48
13 | GCGAAGCAAUAUUACGCCGA | – | -1.78 ± 0.35
14 | GCGAAGCAAUAUUACGCGAC | -1.88 ± 0.17 | -1.1 ± 0.19
15 | GCGAAGCAAUAUUACGCGAG | -2.08 ± 0.22 | -3.24 ± 0.3
16 | GCGAAGCAAUAUUACGCGAU | -2.49 ± 0.44 | -1.74 ± 0.47
17 | GCGAAGCAAUAUUACGCGCG | -2.34 ± 0.17 | -1.28 ± 0.22
18 | GCGAAGCAAUAUUACGCGCU | -1.85 ± 0.24 | -1.48 ± 0.4
19 | GCGAAGCAAUAUUACGCGGC | -3.23 ± 0.22 | -2.35 ± 0.25
20 | GCGAAGCAAUAUUACGGGAA | -3.48 ± 0.43 | -2.68 ± 0.33
21 | GCGAAGCAAUAUUACGGGCG | -1.84 ± 0.11 | -0.509 ± 0.13
22 | GCGAAGCAAUAUUACGGGCU | -2.68 ± 0.19 | -1.88 ± 0.17
23 | GCGAAGCAAUAUUACGGGGC | -3.1 ± 0.24 | -1.82 ± 0.23
24 | GCGAAGCAAUAUUACGUAAG | -2.04 ± 0.11 | -1.41 ± 0.13
25 | GCGAAGCAAUAUUACGUAGG | -1.32 ± 0.092 | -1.43 ± 0.13
26 | GCGAAGCAAUAUUACGUCUA | -1.16 ± 0.1 | -1.3 ± 0.093

Row | Sequence | self-splicing fitness (ln) (30 °C) | self-splicing fitness (ln) (37 °C)
27 | GCGAAGCAAUAUUACGUGAU | -2.53 ± 0.092 | -0.973 ± 0.098
28 | GCGAAGCAAUAUUACGUGCG | -2.31 ± 0.16 | -1.5 ± 0.18
29 | GCGAAGCAAUAUUACGUGGG | -3.87 ± 0.24 | -2.67 ± 0.26
30 | GCGAAGCAAUAUUACGUGUU | -2.52 ± 0.11 | -2.07 ± 0.11
31 | GCGCAGCAAUAUUACGAAAC | -0.473 ± 0.16 | -0.354 ± 0.19
32 | GCGCAGCAAUAUUACGACCG | -1.37 ± 0.18 | -0.215 ± 0.21
33 | GCGCAGCAAUAUUACGAUUU | -1.07 ± 0.094 | 0.585 ± 0.11
34 | GCGCAGCAAUAUUACGCAGU | -2.63 ± 0.31 | -1.04 ± 0.29
35 | GCGCAGCAAUAUUACGCAUG | -3.37 ± 0.28 | -3.3 ± 0.33
36 | GCGCAGCAAUAUUACGCGUG | -1.93 ± 0.11 | -1.36 ± 0.13
37 | GCGCAGCAAUAUUACGCUCC | -0.982 ± 0.34 | -1.01 ± 0.45
38 | GCGCAGCAAUAUUACGGCAU | -0.756 ± 0.075 | 0.684 ± 0.11
39 | GCGCAGCAAUAUUACGGUAC | -1.22 ± 0.082 | 0.195 ± 0.095
40 | GCGCAGCAAUAUUACGGUCC | -1.22 ± 0.12 | 0.23 ± 0.17
41 | GCGCAGCAAUAUUACGGUUA | -1.11 ± 0.084 | -0.631 ± 0.08
42 | GCGCAGCAAUAUUACGUCAC | -4.04 ± 0.17 | -1.65 ± 0.11
43 | GCGCAGCAAUAUUACGUGGG | -2.53 ± 0.1 | -1.6 ± 0.11
44 | GCGCAGCAAUAUUACGUUCU | -0.657 ± 0.093 | 0.0134 ± 0.11
45 | GCGGAGCAAUAUUACGAAUA | – | -3.02 ± 0.4
46 | GCGGAGCAAUAUUACGACAG | -3.33 ± 0.5 | -1.09 ± 0.45
47 | GCGGAGCAAUAUUACGACGC | – | -2.45 ± 0.21
48 | GCGGAGCAAUAUUACGAGCA | – | -0.82 ± 0.4
49 | GCGGAGCAAUAUUACGAUUG | -3.31 ± 0.19 | -2.23 ± 0.24
50 | GCGGAGCAAUAUUACGCAAC | -2.35 ± 0.48 | –
51 | GCGGAGCAAUAUUACGCAUU | -2.8 ± 0.39 | –
52 | GCGGAGCAAUAUUACGCGAG | – | -2.39 ± 0.36

Row | Sequence | self-splicing fitness (ln) (30 °C) | self-splicing fitness (ln) (37 °C)
53 | GCGGAGCAAUAUUACGCGUG | -2.56 ± 0.29 | -1.85 ± 0.29
54 | GCGGAGCAAUAUUACGCUUG | -3.14 ± 0.24 | -1.06 ± 0.2
55 | GCGGAGCAAUAUUACGGAAG | – | -2.11 ± 0.36
56 | GCGGAGCAAUAUUACGGCUA | – | -1.81 ± 0.39
57 | GCGGAGCAAUAUUACGGUCC | -2.54 ± 0.39 | –
58 | GCGGAGCAAUAUUACGGUGG | -3.54 ± 0.35 | -2.27 ± 0.39
59 | GCGGAGCAAUAUUACGUAAC | -1.54 ± 0.34 | –
60 | GCGGAGCAAUAUUACGUAUC | -1.83 ± 0.33 | –
61 | GCGGAGCAAUAUUACGUAUG | -3.28 ± 0.31 | -2.58 ± 0.41
62 | GCGGAGCAAUAUUACGUCAA | -2.42 ± 0.37 | –
63 | GCGGAGCAAUAUUACGUCAG | -3.19 ± 0.31 | -2.38 ± 0.35
64 | GCGGAGCAAUAUUACGUCCU | -1.31 ± 0.25 | -0.651 ± 0.41
65 | GCGGAGCAAUAUUACGUCUU | -2.3 ± 0.22 | -0.899 ± 0.22
66 | GCGGAGCAAUAUUACGUUCG | – | -0.666 ± 0.37
67 | GCGGAGCAAUAUUACGUUGG | – | -3.01 ± 0.4
68 | GCGUAGCAAUAUUACGACAC | -0.714 ± 0.092 | -0.0138 ± 0.097
69 | GCGUAGCAAUAUUACGACGA | -0.712 ± 0.15 | -0.0139 ± 0.19
70 | GCGUAGCAAUAUUACGACGG | -3.73 ± 0.48 | -2.79 ± 0.43
71 | GCGUAGCAAUAUUACGAGCA | -1.28 ± 0.082 | -0.574 ± 0.094
72 | GCGUAGCAAUAUUACGAGCG | -0.887 ± 0.15 | -1.62 ± 0.17
73 | GCGUAGCAAUAUUACGAGGC | – | -1.53 ± 0.39
74 | GCGUAGCAAUAUUACGAGUC | -2.81 ± 0.22 | -2.17 ± 0.23
75 | GCGUAGCAAUAUUACGAUCG | -1.34 ± 0.12 | -0.204 ± 0.13
76 | GCGUAGCAAUAUUACGAUGC | -3.71 ± 0.32 | -1.39 ± 0.27
77 | GCGUAGCAAUAUUACGCCGU | -2.86 ± 0.26 | -3.17 ± 0.26
78 | GCGUAGCAAUAUUACGCGGG | -3.78 ± 0.24 | -2.75 ± 0.3

Row | Sequence | self-splicing fitness (ln) (30 °C) | self-splicing fitness (ln) (37 °C)
79 | GCGUAGCAAUAUUACGCGUG | -4.06 ± 0.28 | -2.71 ± 0.15
80 | GCGUAGCAAUAUUACGGACG | -3.14 ± 0.21 | -2.1 ± 0.22
81 | GCGUAGCAAUAUUACGGCAG | -3.83 ± 0.28 | -2.13 ± 0.39
82 | GCGUAGCAAUAUUACGGCGG | -2.79 ± 0.19 | -1.36 ± 0.23
83 | GCGUAGCAAUAUUACGGGGA | -2.23 ± 0.32 | -2.89 ± 0.35
84 | GCGUAGCAAUAUUACGGUGA | -1.73 ± 0.12 | -0.187 ± 0.12
85 | GCGUAGCAAUAUUACGGUUU | -1.03 ± 0.1 | -0.436 ± 0.13
86 | GCGUAGCAAUAUUACGUAUA | -2.15 ± 0.26 | -1.52 ± 0.21
87 | GCGUAGCAAUAUUACGUUAU | -3.72 ± 0.35 | -1.89 ± 0.18
88 | GCGUAGCAAUAUUACGUUGG | -2.62 ± 0.24 | -2.96 ± 0.32
89 | GCUAAGCAAUAUUACGACGG | -1.8 ± 0.11 | -1.49 ± 0.14
90 | GCUAAGCAAUAUUACGACUC | 0.21 ± 0.098 | 0.379 ± 0.14
91 | GCUAAGCAAUAUUACGAGCA | -1.72 ± 0.14 | -1.03 ± 0.13
92 | GCUAAGCAAUAUUACGAUGG | -0.808 ± 0.072 | -0.4 ± 0.098
93 | GCUAAGCAAUAUUACGCAAG | – | -1.46 ± 0.28
94 | GCUAAGCAAUAUUACGCAGC | -3.14 ± 0.4 | -2.62 ± 0.28
95 | GCUAAGCAAUAUUACGCCGC | -2.72 ± 0.48 | –
96 | GCUAAGCAAUAUUACGCCUC | -1.89 ± 0.16 | -0.286 ± 0.22
97 | GCUAAGCAAUAUUACGCGGU | -2.97 ± 0.27 | -2.72 ± 0.25
98 | GCUAAGCAAUAUUACGCGUC | -0.276 ± 0.14 | -2.47 ± 0.19
99 | GCUAAGCAAUAUUACGGCCC | -1.78 ± 0.18 | -0.371 ± 0.14
100 | GCUAAGCAAUAUUACGGCCG | -3.06 ± 0.25 | -2.9 ± 0.47
101 | GCUAAGCAAUAUUACGGGAA | -1.56 ± 0.12 | -1.16 ± 0.12
